Patent US20240158537A1

Target: IL-7 receptor (IL-7R), heterodimer of IL-7R alpha (CD127) and common gamma chain (CD132), on primary human T cells (human) (UniProt P16871)
Assay: cell-based or functional assay

Sequence of IL-7 receptor (IL-7R), heterodimer of IL-7R alpha (CD127) and common gamma chain (CD132), on primary human T cells (human) (P16871 21-459, chain 1 of 2): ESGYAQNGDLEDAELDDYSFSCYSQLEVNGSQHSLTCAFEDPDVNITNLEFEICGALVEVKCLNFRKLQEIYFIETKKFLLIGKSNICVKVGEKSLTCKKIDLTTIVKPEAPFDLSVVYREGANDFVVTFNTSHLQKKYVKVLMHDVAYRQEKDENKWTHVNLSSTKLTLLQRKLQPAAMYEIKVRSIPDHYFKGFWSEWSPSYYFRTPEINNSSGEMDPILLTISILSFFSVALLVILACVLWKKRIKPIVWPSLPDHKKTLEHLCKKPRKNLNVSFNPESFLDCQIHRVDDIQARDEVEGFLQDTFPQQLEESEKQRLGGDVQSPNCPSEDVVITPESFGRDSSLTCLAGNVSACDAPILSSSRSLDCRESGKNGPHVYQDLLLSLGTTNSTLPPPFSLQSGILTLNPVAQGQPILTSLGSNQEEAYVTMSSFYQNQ
Sequence of IL-7 receptor (IL-7R), heterodimer of IL-7R alpha (CD127) and common gamma chain (CD132), on primary human T cells (human) (P31785 23-369, chain 2 of 2, further chain): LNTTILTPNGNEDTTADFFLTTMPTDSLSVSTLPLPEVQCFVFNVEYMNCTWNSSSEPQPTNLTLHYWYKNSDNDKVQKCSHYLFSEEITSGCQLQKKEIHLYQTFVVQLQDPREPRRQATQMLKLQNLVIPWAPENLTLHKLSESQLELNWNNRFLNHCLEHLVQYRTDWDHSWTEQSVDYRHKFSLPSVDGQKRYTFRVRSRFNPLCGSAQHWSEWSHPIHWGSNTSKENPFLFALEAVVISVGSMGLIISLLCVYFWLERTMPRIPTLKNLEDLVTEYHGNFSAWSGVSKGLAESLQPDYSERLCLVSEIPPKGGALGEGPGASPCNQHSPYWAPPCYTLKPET

Avg EC50 (nM) (human pSTAT5), CD4 Memory: 0.001 nM | Avg EC50 (nM) (human pSTAT5), CD4 Naive: 0.001 nM | Avg EC50 (nM) (human pSTAT5), CD4 Treg: 0.033 nM | Avg EC50 (nM) (human pSTAT5), CD8 Memory: 0.006 nM | Avg EC50 (nM) (human pSTAT5), CD8 Naive: 0.002 nM
B1: WT IL-7 His (SEQ ID NO: 2), native IL-7 with His-tag (ligand)
chain: DCDIEGKDGKQYESVLMVSIDQLLDSMKEIGSNCLNNEFNFFKRHICDANKEGMFLFRAARKLRQFLKMNSTGDFDLHLLKVSEGTTILLNCTGQVKGRKPAALGEAQPTKSLEENKSLKEQKKLNDLCFLKRLLQEIKTCWNKILMGTKEHVDHHHHHH
